Experimental findings from patent US20230416330A1, “Optimized GIP Peptide Analogues” (Antag Therapeutics ApS, priority 2019, published 2023) are described below.

The target in this assay is T1, human GIP receptor (human, UniProt P48546 22-466).
T1 sequence (looked up): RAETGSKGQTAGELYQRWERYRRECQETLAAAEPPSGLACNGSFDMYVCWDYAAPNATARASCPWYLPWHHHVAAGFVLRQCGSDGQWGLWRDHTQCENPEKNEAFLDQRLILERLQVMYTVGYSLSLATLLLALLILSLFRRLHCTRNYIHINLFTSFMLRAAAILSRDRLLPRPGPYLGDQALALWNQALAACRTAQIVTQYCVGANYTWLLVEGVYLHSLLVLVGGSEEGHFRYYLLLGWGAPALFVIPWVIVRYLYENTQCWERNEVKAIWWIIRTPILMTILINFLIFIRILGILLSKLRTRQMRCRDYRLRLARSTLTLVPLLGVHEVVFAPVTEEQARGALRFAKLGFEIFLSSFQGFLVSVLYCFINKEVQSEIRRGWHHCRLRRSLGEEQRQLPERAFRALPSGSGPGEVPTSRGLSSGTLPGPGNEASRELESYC
The assay is described as follows: cell-based or functional assay.

No end group written: not given here. *: point of attachment. C20 diacid = O=C(O)CCCCCCCCCCCCCCCCCCC(=O)*; C16 diacid = O=C(O)CCCCCCCCCCCCCCC(=O)*; Palmitoyl = CCCCCCCCCCCCCCCC(=O)*

B1: AT749 (peptide)
peptide: EGTFISDYSIAMDKIK(C16 diacid)QQDFVEWLLAQK-OH
modifications: N-terminus assumed
SMILES: CC[C@H](C)[C@H](NC(=O)[C@H](CO)NC(=O)[C@H](Cc1ccc(O)cc1)NC(=O)[C@H](CC(=O)O)NC(=O)[C@H](CO)NC(=O)[C@@H](NC(=O)[C@H](Cc1ccccc1)NC(=O)[C@@H](NC(=O)CNC(=O)[C@@H](N)CCC(=O)O)[C@@H](C)O)[C@@H](C)CC)C(=O)N[C@@H](C)C(=O)N[C@@H](CCSC)C(=O)N[C@@H](CC(=O)O)C(=O)N[C@@H](CCCCN)C(=O)N[C@H](C(=O)N[C@@H](CCCCNC(=O)CCCCCCCCCCCCCCC(=O)O)C(=O)N[C@@H](CCC(N)=O)C(=O)N[C@@H](CCC(N)=O)C(=O)N[C@@H](CC(=O)O)C(=O)N[C@@H](Cc1ccccc1)C(=O)N[C@H](C(=O)N[C@@H](CCC(=O)O)C(=O)N[C@@H](Cc1c[nH]c2ccccc12)C(=O)N[C@@H](CC(C)C)C(=O)N[C@@H](CC(C)C)C(=O)N[C@@H](C)C(=O)N[C@@H](CCC(N)=O)C(=O)N[C@@H](CCCCN)C(=O)O)C(C)C)[C@@H](C)CC
As to B1, the “nM (Kb, Gaddum assay, cAMP)” value amounted to 2.2 nM and the “pKb (Gaddum assay, cAMP)” value came to 8.7.

B2: AT745 (peptide)
peptide: EGTFISDYSIAMDKIK(C16 diacid)QQAFVEWLLAQKPSSGAPPPS-OH
modifications: N-terminus assumed
SMILES: CC[C@H](C)[C@H](NC(=O)[C@H](CO)NC(=O)[C@H](Cc1ccc(O)cc1)NC(=O)[C@H](CC(=O)O)NC(=O)[C@H](CO)NC(=O)[C@@H](NC(=O)[C@H](Cc1ccccc1)NC(=O)[C@@H](NC(=O)CNC(=O)[C@@H](N)CCC(=O)O)[C@@H](C)O)[C@@H](C)CC)C(=O)N[C@@H](C)C(=O)N[C@@H](CCSC)C(=O)N[C@@H](CC(=O)O)C(=O)N[C@@H](CCCCN)C(=O)N[C@H](C(=O)N[C@@H](CCCCNC(=O)CCCCCCCCCCCCCCC(=O)O)C(=O)N[C@@H](CCC(N)=O)C(=O)N[C@@H](CCC(N)=O)C(=O)N[C@@H](C)C(=O)N[C@@H](Cc1ccccc1)C(=O)N[C@H](C(=O)N[C@@H](CCC(=O)O)C(=O)N[C@@H](Cc1c[nH]c2ccccc12)C(=O)N[C@@H](CC(C)C)C(=O)N[C@@H](CC(C)C)C(=O)N[C@@H](C)C(=O)N[C@@H](CCC(N)=O)C(=O)N[C@@H](CCCCN)C(=O)N1CCC[C@H]1C(=O)N[C@@H](CO)C(=O)N[C@@H](CO)C(=O)NCC(=O)N[C@@H](C)C(=O)N1CCC[C@H]1C(=O)N1CCC[C@H]1C(=O)N1CCC[C@H]1C(=O)N[C@@H](CO)C(=O)O)C(C)C)[C@@H](C)CC
Regarding B2, the “nM (Kb, Gaddum assay, cAMP)” value was determined as 0.49 nM and the “pKb (Gaddum assay, cAMP)” value was 9.3.

B3: AT747 (peptide)
peptide: EGTFISDYSIAMDKIK(C16 diacid)QQDFVEWLLAEKPSSGAPPPS-OH
modifications: N-terminus assumed
SMILES: CC[C@H](C)[C@H](NC(=O)[C@H](CO)NC(=O)[C@H](Cc1ccc(O)cc1)NC(=O)[C@H](CC(=O)O)NC(=O)[C@H](CO)NC(=O)[C@@H](NC(=O)[C@H](Cc1ccccc1)NC(=O)[C@@H](NC(=O)CNC(=O)[C@@H](N)CCC(=O)O)[C@@H](C)O)[C@@H](C)CC)C(=O)N[C@@H](C)C(=O)N[C@@H](CCSC)C(=O)N[C@@H](CC(=O)O)C(=O)N[C@@H](CCCCN)C(=O)N[C@H](C(=O)N[C@@H](CCCCNC(=O)CCCCCCCCCCCCCCC(=O)O)C(=O)N[C@@H](CCC(N)=O)C(=O)N[C@@H](CCC(N)=O)C(=O)N[C@@H](CC(=O)O)C(=O)N[C@@H](Cc1ccccc1)C(=O)N[C@H](C(=O)N[C@@H](CCC(=O)O)C(=O)N[C@@H](Cc1c[nH]c2ccccc12)C(=O)N[C@@H](CC(C)C)C(=O)N[C@@H](CC(C)C)C(=O)N[C@@H](C)C(=O)N[C@@H](CCC(=O)O)C(=O)N[C@@H](CCCCN)C(=O)N1CCC[C@H]1C(=O)N[C@@H](CO)C(=O)N[C@@H](CO)C(=O)NCC(=O)N[C@@H](C)C(=O)N1CCC[C@H]1C(=O)N1CCC[C@H]1C(=O)N1CCC[C@H]1C(=O)N[C@@H](CO)C(=O)O)C(C)C)[C@@H](C)CC
B3: the “nM (Kb, Gaddum assay, cAMP)” value amounted to 14 nM and the “pKb (Gaddum assay, cAMP)” value is 7.9.

B4: AT751 (peptide)
peptide: EGTFISDYSIAMDKIK(Palmitoyl)QQDFVEWLLAQKPSSGAPPPS-OH
modifications: N-terminus assumed
SMILES: CCCCCCCCCCCCCCCC(=O)NCCCC[C@H](NC(=O)[C@@H](NC(=O)[C@H](CCCCN)NC(=O)[C@H](CC(=O)O)NC(=O)[C@H](CCSC)NC(=O)[C@H](C)NC(=O)[C@@H](NC(=O)[C@H](CO)NC(=O)[C@H](Cc1ccc(O)cc1)NC(=O)[C@H](CC(=O)O)NC(=O)[C@H](CO)NC(=O)[C@@H](NC(=O)[C@H](Cc1ccccc1)NC(=O)[C@@H](NC(=O)CNC(=O)[C@@H](N)CCC(=O)O)[C@@H](C)O)[C@@H](C)CC)[C@@H](C)CC)[C@@H](C)CC)C(=O)N[C@@H](CCC(N)=O)C(=O)N[C@@H](CCC(N)=O)C(=O)N[C@@H](CC(=O)O)C(=O)N[C@@H](Cc1ccccc1)C(=O)N[C@H](C(=O)N[C@@H](CCC(=O)O)C(=O)N[C@@H](Cc1c[nH]c2ccccc12)C(=O)N[C@@H](CC(C)C)C(=O)N[C@@H](CC(C)C)C(=O)N[C@@H](C)C(=O)N[C@@H](CCC(N)=O)C(=O)N[C@@H](CCCCN)C(=O)N1CCC[C@H]1C(=O)N[C@@H](CO)C(=O)N[C@@H](CO)C(=O)NCC(=O)N[C@@H](C)C(=O)N1CCC[C@H]1C(=O)N1CCC[C@H]1C(=O)N1CCC[C@H]1C(=O)N[C@@H](CO)C(=O)O)C(C)C
With B4, the “nM (Kb, Gaddum assay, cAMP)” value turned out to be 0.92 nM and the “pKb (Gaddum assay, cAMP)” value was found to be 9.

B5: AT750 (peptide)
peptide: EGTFISDYSIAMDKIK(C20 diacid)QQDFVEWLLAQKPSSGAPPPS-OH
modifications: N-terminus assumed
SMILES: CC[C@H](C)[C@H](NC(=O)[C@H](CO)NC(=O)[C@H](Cc1ccc(O)cc1)NC(=O)[C@H](CC(=O)O)NC(=O)[C@H](CO)NC(=O)[C@@H](NC(=O)[C@H](Cc1ccccc1)NC(=O)[C@@H](NC(=O)CNC(=O)[C@@H](N)CCC(=O)O)[C@@H](C)O)[C@@H](C)CC)C(=O)N[C@@H](C)C(=O)N[C@@H](CCSC)C(=O)N[C@@H](CC(=O)O)C(=O)N[C@@H](CCCCN)C(=O)N[C@H](C(=O)N[C@@H](CCCCNC(=O)CCCCCCCCCCCCCCCCCCC(=O)O)C(=O)N[C@@H](CCC(N)=O)C(=O)N[C@@H](CCC(N)=O)C(=O)N[C@@H](CC(=O)O)C(=O)N[C@@H](Cc1ccccc1)C(=O)N[C@H](C(=O)N[C@@H](CCC(=O)O)C(=O)N[C@@H](Cc1c[nH]c2ccccc12)C(=O)N[C@@H](CC(C)C)C(=O)N[C@@H](CC(C)C)C(=O)N[C@@H](C)C(=O)N[C@@H](CCC(N)=O)C(=O)N[C@@H](CCCCN)C(=O)N1CCC[C@H]1C(=O)N[C@@H](CO)C(=O)N[C@@H](CO)C(=O)NCC(=O)N[C@@H](C)C(=O)N1CCC[C@H]1C(=O)N1CCC[C@H]1C(=O)N1CCC[C@H]1C(=O)N[C@@H](CO)C(=O)O)C(C)C)[C@@H](C)CC
In the case of B5, the “nM (Kb, Gaddum assay, cAMP)” value was 4.1 nM and the “pKb (Gaddum assay, cAMP)” value was determined as 8.4.

B6: AT746 (peptide)
peptide: EGTFISDYAIAMDKIK(C16 diacid)QQDFVEWLLAQKPSSGAPPPS-OH
modifications: N-terminus assumed
SMILES: CC[C@H](C)[C@H](NC(=O)[C@H](C)NC(=O)[C@H](Cc1ccc(O)cc1)NC(=O)[C@H](CC(=O)O)NC(=O)[C@H](CO)NC(=O)[C@@H](NC(=O)[C@H](Cc1ccccc1)NC(=O)[C@@H](NC(=O)CNC(=O)[C@@H](N)CCC(=O)O)[C@@H](C)O)[C@@H](C)CC)C(=O)N[C@@H](C)C(=O)N[C@@H](CCSC)C(=O)N[C@@H](CC(=O)O)C(=O)N[C@@H](CCCCN)C(=O)N[C@H](C(=O)N[C@@H](CCCCNC(=O)CCCCCCCCCCCCCCC(=O)O)C(=O)N[C@@H](CCC(N)=O)C(=O)N[C@@H](CCC(N)=O)C(=O)N[C@@H](CC(=O)O)C(=O)N[C@@H](Cc1ccccc1)C(=O)N[C@H](C(=O)N[C@@H](CCC(=O)O)C(=O)N[C@@H](Cc1c[nH]c2ccccc12)C(=O)N[C@@H](CC(C)C)C(=O)N[C@@H](CC(C)C)C(=O)N[C@@H](C)C(=O)N[C@@H](CCC(N)=O)C(=O)N[C@@H](CCCCN)C(=O)N1CCC[C@H]1C(=O)N[C@@H](CO)C(=O)N[C@@H](CO)C(=O)NCC(=O)N[C@@H](C)C(=O)N1CCC[C@H]1C(=O)N1CCC[C@H]1C(=O)N1CCC[C@H]1C(=O)N[C@@H](CO)C(=O)O)C(C)C)[C@@H](C)CC
With B6, the “nM (Kb, Gaddum assay, cAMP)” value came to 0.97 nM and the “pKb (Gaddum assay, cAMP)” value came to 9.

B7: AT748 (peptide)
peptide: EGTFISDYSIAMDAIK(C16 diacid)QQDFVEWLLAQKPSSGAPPPS-OH
modifications: N-terminus assumed
SMILES: CC[C@H](C)[C@H](NC(=O)[C@H](C)NC(=O)[C@H](CC(=O)O)NC(=O)[C@H](CCSC)NC(=O)[C@H](C)NC(=O)[C@@H](NC(=O)[C@H](CO)NC(=O)[C@H](Cc1ccc(O)cc1)NC(=O)[C@H](CC(=O)O)NC(=O)[C@H](CO)NC(=O)[C@@H](NC(=O)[C@H](Cc1ccccc1)NC(=O)[C@@H](NC(=O)CNC(=O)[C@@H](N)CCC(=O)O)[C@@H](C)O)[C@@H](C)CC)[C@@H](C)CC)C(=O)N[C@@H](CCCCNC(=O)CCCCCCCCCCCCCCC(=O)O)C(=O)N[C@@H](CCC(N)=O)C(=O)N[C@@H](CCC(N)=O)C(=O)N[C@@H](CC(=O)O)C(=O)N[C@@H](Cc1ccccc1)C(=O)N[C@H](C(=O)N[C@@H](CCC(=O)O)C(=O)N[C@@H](Cc1c[nH]c2ccccc12)C(=O)N[C@@H](CC(C)C)C(=O)N[C@@H](CC(C)C)C(=O)N[C@@H](C)C(=O)N[C@@H](CCC(N)=O)C(=O)N[C@@H](CCCCN)C(=O)N1CCC[C@H]1C(=O)N[C@@H](CO)C(=O)N[C@@H](CO)C(=O)NCC(=O)N[C@@H](C)C(=O)N1CCC[C@H]1C(=O)N1CCC[C@H]1C(=O)N1CCC[C@H]1C(=O)N[C@@H](CO)C(=O)O)C(C)C
As to B7, the “nM (Kb, Gaddum assay, cAMP)” value is 0.42 nM and the “pKb (Gaddum assay, cAMP)” value was 9.4.
